Laboratory results reported in the supplement of paper PMC7877785.
± gives the uncertainty stated by the source.

Assay: self-splicing fitness, log relative to wild type (ln ratio); higher = more splicing; Tetrahymena group I intron in knt gene, E. coli kanamycin selection, DiMSum; sequences stand for … in CUCUCU…GGAGGGAAAAGUUAUCAGGCAUGCACCUGGUAGCUAGUCUUUAAACCAAUAGAUUGCAUCGGUUUAAAAGGCAAGACCGUCAAAUUGCGGGAAAGGGGUCAACAGCCGUUCAGUACCAAGUCUCAGGGGAAACUUUGAGAUGGCCUUGCAAAGGGUAUGGUAAUAAGCUGACGGACAUGGUCCUAACCACGCAGCCAAGUCCUAAGUCAACAGAUCUUCUGUUGAUAUGGAUGCAGUUCACAGACUAAAUGUCGGUCGGGGAAGAUGUAUUCUUCUCAUAAGAUAUAGUCGGACCUCUCCUUAAUGGGAGCUAGCGGAUGAAGUGAUGCAACACUGGAGCCGCUGGGAACUAAUUUGUAUGCGAAAGUAUAUUGAUUAGUUUUGGAGUACUCGUGGUCG
Summary of the method: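 Fitness was computed with DiMSum as the error-weighted combination of replicate fold changes, kanamycin versus none, each normalised to wild type. The library randomised all eight intron nucleotides of the P1ex region, with the intron placed in the knt kanamycin-resistance gene on pET-22b(+) in E. coli BL21(DE3). Six replicate transformations were grown overnight at 37°C or 30°C on LB agar with or without 25 μg/mL kanamycin, plus 100 μg/mL carbenicillin, 50 μM IPTG and 0.2% rhamnose. Pooled colonies were amplicon-sequenced on an Illumina HiSeq 2500.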

| Sequence | self-splicing fitness (ln) (30 °C) | self-splicing fitness (ln) (37 °C) |
| --- | --- | --- |
| AUCGAGCAAUAUUACGGGUA | -2.85 ± 0.16 | -2.15 ± 0.14 |
| AUCGAGCAAUAUUACGGGUG | -3.28 ± 0.14 | -1.89 ± 0.12 |
| AUCGAGCAAUAUUACGUAGC | -4.41 ± 0.42 | -1.79 ± 0.26 |
| AUCGAGCAAUAUUACGUAGG | -3.82 ± 0.39 | -2.04 ± 0.2 |
| AUCGAGCAAUAUUACGUCCG | -3.17 ± 0.31 | -2.94 ± 0.44 |
| AUCGAGCAAUAUUACGUGCC | -2.52 ± 0.2 | -2.22 ± 0.32 |
| AUCGAGCAAUAUUACGUUAA | -3.73 ± 0.27 | -2.48 ± 0.29 |
| AUCUAGCAAUAUUACGAAAG | -3.62 ± 0.27 | -2.15 ± 0.24 |
| AUCUAGCAAUAUUACGAAAU | -1.81 ± 0.11 | -0.899 ± 0.11 |
| AUCUAGCAAUAUUACGAACU | -0.13 ± 0.12 | 0.27 ± 0.12 |
| AUCUAGCAAUAUUACGACUU | -0.1 ± 0.074 | 0.24 ± 0.092 |
| AUCUAGCAAUAUUACGAGAC | -4.67 ± 0.42 | -3.22 ± 0.3 |
| AUCUAGCAAUAUUACGAGCG | -1.87 ± 0.12 | -1.25 ± 0.15 |
| AUCUAGCAAUAUUACGAGGA | -2.83 ± 0.32 | -2.01 ± 0.21 |
| AUCUAGCAAUAUUACGAGGU | -5.03 ± 0.45 | -3.28 ± 0.43 |
| AUCUAGCAAUAUUACGAUCG | -3.35 ± 0.24 | -1.77 ± 0.27 |
| AUCUAGCAAUAUUACGCACA | -0.774 ± 0.11 | 0.129 ± 0.12 |
| AUCUAGCAAUAUUACGCCCC | -0.911 ± 0.15 | 0.223 ± 0.22 |
| AUCUAGCAAUAUUACGCCGG | – | -1.25 ± 0.34 |
| AUCUAGCAAUAUUACGCUGA | -1.71 ± 0.18 | -0.501 ± 0.13 |
| AUCUAGCAAUAUUACGGAAA | -2.23 ± 0.2 | -1.66 ± 0.18 |
| AUCUAGCAAUAUUACGGACG | -0.422 ± 0.07 | 0.212 ± 0.094 |
| AUCUAGCAAUAUUACGGCCG | -1.43 ± 0.23 | -0.562 ± 0.38 |
| AUCUAGCAAUAUUACGGCUA | -3.6 ± 0.28 | -2.4 ± 0.23 |
| AUCUAGCAAUAUUACGGGAC | -2.44 ± 0.17 | -1.03 ± 0.13 |

| Sequence | self-splicing fitness (ln) (30 °C) | self-splicing fitness (ln) (37 °C) |
| --- | --- | --- |
| AUCUAGCAAUAUUACGGGAG | -0.833 ± 0.076 | -0.293 ± 0.092 |
| AUCUAGCAAUAUUACGGGGC | -2.42 ± 0.47 | – |
| AUCUAGCAAUAUUACGGGGU | -3 ± 0.16 | -2.98 ± 0.2 |
| AUCUAGCAAUAUUACGUCAU | -1.41 ± 0.11 | -0.955 ± 0.12 |
| AUCUAGCAAUAUUACGUUAA | -1.84 ± 0.23 | -1.82 ± 0.34 |
| AUGAAGCAAUAUUACGAACU | -0.587 ± 0.074 | 0.606 ± 0.098 |
| AUGAAGCAAUAUUACGAAUC | -1.68 ± 0.23 | – |
| AUGAAGCAAUAUUACGACAA | 0.158 ± 0.11 | 0.0912 ± 0.12 |
| AUGAAGCAAUAUUACGACCU | 0.893 ± 0.14 | 1.08 ± 0.15 |
| AUGAAGCAAUAUUACGAGCU | -1.52 ± 0.12 | -0.173 ± 0.14 |
| AUGAAGCAAUAUUACGCCCC | 0.963 ± 0.19 | 0.00961 ± 0.23 |
| AUGAAGCAAUAUUACGCGCA | 0.498 ± 0.096 | 0.526 ± 0.12 |
| AUGAAGCAAUAUUACGCGGU | -2.88 ± 0.24 | -1.71 ± 0.2 |
| AUGAAGCAAUAUUACGCGUU | -2.78 ± 0.12 | -0.429 ± 0.093 |
| AUGAAGCAAUAUUACGCUCA | 0.436 ± 0.068 | 0.555 ± 0.082 |
| AUGAAGCAAUAUUACGCUGC | -2.7 ± 0.24 | -2.42 ± 0.44 |
| AUGAAGCAAUAUUACGGAAA | -2.48 ± 0.15 | -0.666 ± 0.15 |
| AUGAAGCAAUAUUACGGAUG | -0.705 ± 0.063 | 0.152 ± 0.076 |
| AUGAAGCAAUAUUACGGCCG | -0.163 ± 0.18 | 0.947 ± 0.26 |
| AUGAAGCAAUAUUACGGCGC | -0.339 ± 0.074 | 0.665 ± 0.11 |
| AUGAAGCAAUAUUACGGCUA | 0.423 ± 0.092 | 0.486 ± 0.11 |
| AUGAAGCAAUAUUACGGGGU | -2.79 ± 0.23 | -1.21 ± 0.17 |
| AUGAAGCAAUAUUACGGGUA | -1.01 ± 0.097 | -0.761 ± 0.13 |
| AUGAAGCAAUAUUACGUCGC | -2.24 ± 0.14 | -1.28 ± 0.18 |
| AUGAAGCAAUAUUACGUCGG | -0.496 ± 0.1 | -0.498 ± 0.11 |

| Sequence | self-splicing fitness (ln) (30 °C) | self-splicing fitness (ln) (37 °C) |
| --- | --- | --- |
| AUGAAGCAAUAUUACGUGAA | -1.99 ± 0.088 | -0.731 ± 0.12 |
| AUGAAGCAAUAUUACGUGAG | -1.27 ± 0.083 | -0.0834 ± 0.12 |
| AUGAAGCAAUAUUACGUUGU | -1.99 ± 0.12 | -0.91 ± 0.12 |
| AUGAAGCAAUAUUACGUUUG | -2.28 ± 0.11 | -1.56 ± 0.13 |
| AUGCAGCAAUAUUACGAAAU | -2.02 ± 0.13 | -0.358 ± 0.11 |
| AUGCAGCAAUAUUACGAAGG | -3.78 ± 0.37 | -2.89 ± 0.41 |
| AUGCAGCAAUAUUACGAAUC | -3.82 ± 0.24 | -2.87 ± 0.2 |
| AUGCAGCAAUAUUACGACAC | -0.537 ± 0.077 | 0.312 ± 0.11 |
| AUGCAGCAAUAUUACGACCU | 0.132 ± 0.082 | 0.168 ± 0.087 |
| AUGCAGCAAUAUUACGAGGG | -2.51 ± 0.15 | -3.09 ± 0.26 |
| AUGCAGCAAUAUUACGAUUA | -1.32 ± 0.1 | -0.923 ± 0.1 |
| AUGCAGCAAUAUUACGCACG | -1.46 ± 0.091 | -0.13 ± 0.1 |
| AUGCAGCAAUAUUACGCAGG | -3.71 ± 0.14 | -2.13 ± 0.12 |
| AUGCAGCAAUAUUACGCGAU | -3.67 ± 0.3 | -1.92 ± 0.25 |
| AUGCAGCAAUAUUACGCUAG | -3.93 ± 0.26 | -2.49 ± 0.23 |
| AUGCAGCAAUAUUACGGACA | -1.13 ± 0.15 | -0.421 ± 0.13 |
| AUGCAGCAAUAUUACGGACG | -1.57 ± 0.12 | -0.811 ± 0.13 |
| AUGCAGCAAUAUUACGGCAU | -3.9 ± 0.19 | -2.61 ± 0.15 |
| AUGCAGCAAUAUUACGGUAA | -0.979 ± 0.11 | -0.791 ± 0.1 |
| AUGCAGCAAUAUUACGGUUC | -2.28 ± 0.088 | -1.83 ± 0.13 |
| AUGCAGCAAUAUUACGGUUG | -4.33 ± 0.23 | -2.21 ± 0.19 |
| AUGCAGCAAUAUUACGGUUU | -0.723 ± 0.065 | -0.427 ± 0.075 |
| AUGCAGCAAUAUUACGUAUC | -4.58 ± 0.41 | -2.76 ± 0.4 |
| AUGCAGCAAUAUUACGUCAU | -3.12 ± 0.14 | -2.26 ± 0.12 |
| AUGCAGCAAUAUUACGUCCG | -2.16 ± 0.11 | -1.27 ± 0.14 |

| Sequence | self-splicing fitness (ln) (30 °C) | self-splicing fitness (ln) (37 °C) |
| --- | --- | --- |
| AUGCAGCAAUAUUACGUUCA | -1.16 ± 0.11 | -0.74 ± 0.12 |
| AUGCAGCAAUAUUACGUUGU | -4.08 ± 0.16 | -3.03 ± 0.15 |
| AUGGAGCAAUAUUACGAAGA | – | -1.17 ± 0.33 |
| AUGGAGCAAUAUUACGAAGG | -3 ± 0.23 | -2.29 ± 0.34 |
| AUGGAGCAAUAUUACGAAUC | -3.53 ± 0.32 | -1.97 ± 0.36 |
| AUGGAGCAAUAUUACGCCGC | -1.29 ± 0.44 | – |
| AUGGAGCAAUAUUACGCGCA | -1.66 ± 0.28 | -0.77 ± 0.23 |
| AUGGAGCAAUAUUACGCUCU | -3.56 ± 0.49 | -1.45 ± 0.41 |
| AUGGAGCAAUAUUACGCUGG | – | -1.53 ± 0.2 |
| AUGGAGCAAUAUUACGGAUA | -2.46 ± 0.17 | -2.21 ± 0.28 |
| AUGGAGCAAUAUUACGGCGC | -2.45 ± 0.34 | -0.677 ± 0.41 |
| AUGGAGCAAUAUUACGGCGU | 0.125 ± 0.14 | 0.224 ± 0.14 |
| AUGGAGCAAUAUUACGGCUG | -2.48 ± 0.17 | -1.84 ± 0.34 |
| AUGGAGCAAUAUUACGGGAG | -2.75 ± 0.18 | -2.82 ± 0.31 |
| AUGGAGCAAUAUUACGGGGC | -3.13 ± 0.18 | -2.14 ± 0.19 |
| AUGGAGCAAUAUUACGGUGC | -2.99 ± 0.25 | – |
| AUGGAGCAAUAUUACGUCCG | -1.29 ± 0.12 | -1.06 ± 0.13 |
| AUGGAGCAAUAUUACGUCUC | -1.83 ± 0.28 | -1.89 ± 0.37 |
| AUGGAGCAAUAUUACGUGCC | -2.59 ± 0.25 | -2.25 ± 0.45 |
| AUGGAGCAAUAUUACGUGUU | -3.69 ± 0.15 | -3.73 ± 0.24 |
| AUGUAGCAAUAUUACGACAG | 0.106 ± 0.081 | 0.358 ± 0.095 |
| AUGUAGCAAUAUUACGACAU | -1.39 ± 0.014 | -0.557 ± 0.033 |
